The target in the assay is T1, tssk 2 fused to the GAL4 DNA binding domain (DNA-BD) (human, UniProt P04386 1-147 (Saccharomyces cerevisiae entry), limits assumed).
T1 construct: Yeast two-hybrid bait in reporter strain AH109; also called bait gene (tssk 2); TSSK2 fusion protein with the DNA-BD
The assay is described as follows: yeast two-hybrid, growth in His-free medium. On the procedure: In this experiment, a bait gene (tssk 2) was first transformed into the reporter strain as a fusion to the GAL4 DNA binding domain (DNA-BD). A second plasmid that expressed tsks as fusion to the GAL 4 activation domain (AD) was also introduced into the AH109 reporter strain. Western blots were performed to confirm expression of fusion proteins in yeast. […] This interaction was used as a positive control. […] Neither GAL-AD alone nor the fusion proteins between GAL-AD and TSKS or GAL-AD and SV40 Large T antigen had the ability to activate transcription of the His gene.

B1: GAL4 activation domain alone (GAL-AD plasmid) (other, UniProt P04386 768-881, looked up)
chain: ANFNQSGNIADSSLSFTFTNSSNGPNLITTQTNSQALSQPIASSNVHDNFMNNEITASKIDDGNNSKPLSPGWTDQTAYNAFGITTGMFNTTTMDDVYNYLFDDEDTPPNPKKE
notes: Empty prey control in the yeast two-hybrid experiment; also called GAL-AD alone
With B1, the binding result is given as “no binding”.

The record behind these values is patent US20030211563A1 (UNIVERSITY OF VIRGINIA PATENT FOUNDATION, published 2003).
